± gives the half width of the 95% confidence interval.
What was measured:
[1] = folding stability dG unfold (combined trypsin and chymotrypsin); higher = more stable
How it was run: (§1)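 Unfolding free energy was derived, per protease or combined, by relating Bayesian-fitted K50 values from sequencing counts to a sequence-predicted unfolded-state K50 and a shared folded-state K50. The underlying digests exposed cysteine-free mini-proteins under 80 residues, in a PA-tagged cDNA display construct, to trypsin and chymotrypsin at 11 threefold-diluted concentrations and to a no-protease condition. A filter kept only designs with AlphaFold2 dimer inter-PAE above 15.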

[2] = folding stability dG unfold from trypsin proteolysis; higher = more stable
How it was run: as §1

[3] = folding stability dG unfold from chymotrypsin proteolysis; higher = more stable
How it was run: as §1

SAGGAKITVDDNKITIELPLPNGKPAGSINEPLPDGSSRILVKFPDFVLHLEITPEGIKIASIDNNKDSAGG [r13_619_TrMRF]
folding stability dG unfold [1]: 1.51 ± 0.22 kcal/mol
folding stability dG unfold [2]: 1.27 ± 0.068 kcal/mol
folding stability dG unfold [3]: 1.77 ± 0.064 kcal/mol

SAGGSAGGSAGGLLEELKAKGYTVLSTPVPSPPDGVPTRTVLAKKGEGTVTFVVPAALLSAGGSAGGSAGGS [r10_35_JUSTAS]
folding stability dG unfold [1]: 0.287 ± 0.23 kcal/mol
folding stability dG unfold [2]: -0.172 ± 0.18 kcal/mol
folding stability dG unfold [3]: 0.525 ± 0.17 kcal/mol

SAGGSAMTPEEARARAEAIAEELAAEARAAGRAAEVTVEVTELPPELYRFTITFPGRTREVLLPVESAGGSA [r15_432_JUSTAS]
folding stability dG unfold [1]: -0.16 ± 0.13 kcal/mol
folding stability dG unfold [2]: -0.18 ± 0.18 kcal/mol
folding stability dG unfold [3]: -0.262 ± 0.15 kcal/mol

SAGGSAKKKEKKVEKKVITIEVEPGVKTPEEMLEAIRKLKEEYPDTKIIIKASDEQKEALKRLLKESAGGSA [r15_89_TrROS_Hall]
folding stability dG unfold [1]: 0.767 ± 0.3 kcal/mol
folding stability dG unfold [2]: 0.669 ± 0.16 kcal/mol
folding stability dG unfold [3]: 0.879 ± 0.14 kcal/mol

TTVTTPKNGLININLTDKKGNKYTFTAPVKDPVETLEKLKKLIKDLFPEYKDVKVKVVSVDGINIKVVVDIS [r1_389_TrMRF]
folding stability dG unfold [1]: 3.26 ± 0.1 kcal/mol
folding stability dG unfold [2]: 2.66 ± 0.11 kcal/mol
folding stability dG unfold [3]: 3.57 ± 0.061 kcal/mol

SAGKKTVTIVIRLKEPGERLSAEELAALLRELGLPPGAKVTVERRPDGYLVVTVEVDGKTVTIVIELEDSAG [r5_144_TrROS_Hall]
folding stability dG unfold [1]: 2.34 ± 0.056 kcal/mol
folding stability dG unfold [2]: 2.04 ± 0.04 kcal/mol
folding stability dG unfold [3]: 2.516 ± 0.019 kcal/mol

SAGMSADIPVDPVTGTLTITVTDAFNPDKSTTTTVPLSELEAELGRPLTLEEVAARVEAAGVATVTVGPSAG [r14_809_JUSTAS]
folding stability dG unfold [1]: 0.82 ± 0.056 kcal/mol
folding stability dG unfold [2]: 1.46 ± 0.051 kcal/mol
folding stability dG unfold [3]: -0.0285 ± 0.085 kcal/mol

SAGGGNKPKIKVLLFFPDRVVELEFESPEEFIRALEEAGFPVIPVSEDSKYLVIEFPDGLRALADFSSAGGS [r8_365_TrMRF]
folding stability dG unfold [1]: 2.48 ± 0.046 kcal/mol
folding stability dG unfold [2]: 2.44 ± 0.049 kcal/mol
folding stability dG unfold [3]: 2.476 ± 0.014 kcal/mol

SAPPDDWKPVTIPILIPFDSVEDAKEWVIELANELAKKHGWRINIDVDIEPVPNRYYIKIPITIYVPKKSAG [r14_626_TrROS]
folding stability dG unfold [1]: 2.47 ± 0.31 kcal/mol
folding stability dG unfold [2]: 2.39 ± 0.19 kcal/mol
folding stability dG unfold [3]: 2.42 ± 0.18 kcal/mol

SAGGSAGIEVHPEGTVRIEVGGRSLTVTPADAVDVTQEGDKIVVTITRRDADGTPVGTLPVTVELASAGGSA [r15_424_JUSTAS]
folding stability dG unfold [1]: 0.52 ± 0.045 kcal/mol
folding stability dG unfold [2]: -0.75 ± 0.088 kcal/mol
folding stability dG unfold [3]: 0.835 ± 0.018 kcal/mol

SAGGSAGGSAMVVEIKPEKLPNGKYKVTVTITDPSTGKTTTTPYIVDPNKFTEEDIKKKLSSAGGSAGGSAG [r3_127_JUSTAS]
folding stability dG unfold [1]: 1.58 ± 0.098 kcal/mol
folding stability dG unfold [2]: 1.37 ± 0.055 kcal/mol
folding stability dG unfold [3]: 1.5 ± 0.077 kcal/mol

SMSMEEAMEWAEENPDRPVIFINPEDWYIMIYNPKKGKMEMRPITSPEEALEELDDENIDRIYIVPADEISA [r9_775_TrROS]
folding stability dG unfold [1]: 1.96 ± 0.088 kcal/mol
folding stability dG unfold [2]: 1.21 ± 0.064 kcal/mol
folding stability dG unfold [3]: 2.31 ± 0.061 kcal/mol

SAMKPKEVVIEISVEELRKLAKELFPEKELTLEELKNLVKELLEKLGIKVKKVEIVKVDPEKKRIVIKVSAG [r14_303_TrROS_Hall]
folding stability dG unfold [1]: 2.02 ± 0.21 kcal/mol
folding stability dG unfold [2]: 2.77 ± 0.15 kcal/mol
folding stability dG unfold [3]: 1.72 ± 0.083 kcal/mol

SASLEELLAELPFDAEVETKDEEVVVKITNPENPDPNVSYTFNIPSSSGVPITVNVTEVEGGTKSVKALSAG [r14_401_JUSTAS]
folding stability dG unfold [1]: -0.172 ± 0.21 kcal/mol
folding stability dG unfold [2]: -0.448 ± 0.15 kcal/mol
folding stability dG unfold [3]: -0.108 ± 0.24 kcal/mol

SAGGSAGGSAGGFVLTFTLPDSVVRITLPEDANPEEIKQRLLEEHGVPIELRLIPPSNPLSAGGSAGGSAGG [r11_805_JUSTAS]
folding stability dG unfold [1]: 0.782 ± 0.2 kcal/mol
folding stability dG unfold [2]: 0.726 ± 0.12 kcal/mol
folding stability dG unfold [3]: 0.664 ± 0.38 kcal/mol

SAGGIRIDDEGMIQIYFPGWRHTIPIKPNLEITEITIPDDGYIKITFRIPGKTVKHEFPMLPPGQEISAGGS [r16_635_TrROS]
folding stability dG unfold [1]: 1.82 ± 0.27 kcal/mol
folding stability dG unfold [2]: 2.35 ± 0.082 kcal/mol
folding stability dG unfold [3]: 1.32 ± 0.1 kcal/mol

SAGGSAGGSAGGGSMTLTEVFVDPETGTRTVRTTTLYTLPNGTLTSTTTTTVEPLPGELSAGGSAGGSAGGS [r10_1258_JUSTAS]
folding stability dG unfold [1]: 1.76 ± 0.043 kcal/mol
folding stability dG unfold [2]: 1.51 ± 0.022 kcal/mol
folding stability dG unfold [3]: 1.87 ± 0.025 kcal/mol

Source: the supplement of paper PMC12764529
